Data reported in patent US20250189530A1 (STCUBE, published 2025).

Legend:
[1] = target: peptide 4 variant C375A expressed by HEK293T cells (human); experiment: western blot, HEK293T lysate, antibody 1 ug/ml
[2] = target: peptide 4 variant V362A expressed by HEK293T cells (human); experiment: western blot, HEK293T lysate, antibody 1 ug/ml
[3] = target: peptide 4 variant E363A expressed by HEK293T cells (human); experiment: western blot, HEK293T lysate, antibody 1 ug/ml
[4] = target: peptide 4 variant E361A expressed by HEK293T cells (human); experiment: western blot, HEK293T lysate, antibody 1 ug/ml
denatured hBTN1A1 ICD = target: T1, denatured hBTN1A1 ICD (human, UniProt Q13410 270-526); experiment: ELISA, stock solution
T1 construct: Same protein as hBTN1A1 ICD, denatured before the ELISA; also called hBTN1A1 ICD denatured; Denatured ICD
T1 sequence: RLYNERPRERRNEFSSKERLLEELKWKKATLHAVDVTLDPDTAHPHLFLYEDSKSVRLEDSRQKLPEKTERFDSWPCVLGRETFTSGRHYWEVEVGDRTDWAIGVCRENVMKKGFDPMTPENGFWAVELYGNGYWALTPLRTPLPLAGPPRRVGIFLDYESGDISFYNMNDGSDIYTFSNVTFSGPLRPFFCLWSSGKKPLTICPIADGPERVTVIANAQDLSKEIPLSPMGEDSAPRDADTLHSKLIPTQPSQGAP

hBTN1A1 ICD = target: T2, hBTN1A1 ICD (human, UniProt Q13410 270-526); experiment: ELISA, stock solution
T2 sequence: T1 sequence

BTN1A1 Peptide 4 = target: T3, BTN1A1 Peptide 4 (human); experiment: ELISA, stock solution
T3 construct: also called BTN1A1-pep4- WT; Pep4
T3 peptide: EVEVGDRTDWAIGVC

[5] = target: T4, LDHB peptide VIKLKGYTNWAIGLS; experiment: SPR sensorgrams (Response in RU), series 15.625-500 nM
T4 construct: also called l-lactate dehydrogenase B chain (LDHB) isoform X1 peptide
T4 peptide: VIKLKGYTNWAIGLS

[6] = target: T5, MALRD1 peptide TQDSEDDLDWAIGSR; experiment: as above
T5 construct: also called MAM and LDL-receptor class A domain-containing protein 1 isoform X1 peptide
T5 peptide: TQDSEDDLDWAIGSR

[7] = target: peptide 4 variant R367A expressed by HEK293T cells (human); experiment: western blot, STC43H11-1 band over Flag band
[8] = target: peptide 4 variant G365A expressed by HEK293T cells (human); experiment: western blot, STC43H11-1 band over Flag band
[9] = target: peptide 4 variant I372A expressed by HEK293T cells (human); experiment: western blot, STC43H11-1 band over Flag band
[10] = target: peptide 4 variant C375A expressed by HEK293T cells (human); experiment: western blot, STC43H11-1 band over Flag band
[11] = target: peptide 4 variant T368A expressed by HEK293T cells (human); experiment: western blot, STC43H11-1 band over Flag band
[12] = target: peptide 4 variant W370A expressed by HEK293T cells (human); experiment: western blot, STC43H11-1 band over Flag band
[13] = target: peptide 4 variant D369A expressed by HEK293T cells (human); experiment: western blot, STC43H11-1 band over Flag band
[14] = target: peptide 4 variant A371G expressed by HEK293T cells (human); experiment: western blot, STC43H11-1 band over Flag band
[15] = target: peptide 4 variant V362A expressed by HEK293T cells (human); experiment: western blot, STC43H11-1 band over Flag band
[16] = target: peptide 4 variant E363A expressed by HEK293T cells (human); experiment: western blot, STC43H11-1 band over Flag band
[17] = target: peptide 4 WT expressed by HEK293T cells (human); experiment: western blot, STC43H11-1 band over Flag band
[18] = target: peptide 4 variant E361A expressed by HEK293T cells (human); experiment: western blot, STC43H11-1 band over Flag band
[19] = target: TRIM variant expressed by HEK293T cells; experiment: western blot, STC43H11-1 band over Flag band
[20] = target: peptide 4 variant D366A expressed by HEK293T cells (human); experiment: western blot, STC43H11-1 band over Flag band
[21] = target: peptide 4 variant V364A expressed by HEK293T cells (human); experiment: western blot, STC43H11-1 band over Flag band
[22] = target: peptide 4 variant V374A expressed by HEK293T cells (human); experiment: western blot, STC43H11-1 band over Flag band
[23] = target: peptide 4 variant G373A expressed by HEK293T cells (human); experiment: western blot, STC43H11-1 band over Flag band
[24] = target: peptide 4 variant G365A expressed by HEK293T cells (human); experiment: western blot, relative to WT
[25] = target: peptide 4 variant I372A expressed by HEK293T cells (human); experiment: western blot, relative to WT
[26] = target: peptide 4 variant T368A expressed by HEK293T cells (human); experiment: western blot, relative to WT
[27] = target: peptide 4 variant W370A expressed by HEK293T cells (human); experiment: western blot, relative to WT
[28] = target: peptide 4 variant D369A expressed by HEK293T cells (human); experiment: western blot, relative to WT
[29] = target: peptide 4 variant A371G expressed by HEK293T cells (human); experiment: western blot, relative to WT
[30] = target: peptide 4 variant E363A expressed by HEK293T cells (human); experiment: western blot, relative to WT
[31] = target: peptide 4 variant E361A expressed by HEK293T cells (human); experiment: western blot, relative to WT
[32] = target: TRIM variant expressed by HEK293T cells; experiment: western blot, relative to WT
[33] = target: peptide 4 variant D366A expressed by HEK293T cells (human); experiment: western blot, relative to WT
[34] = target: peptide 4 variant V364A expressed by HEK293T cells (human); experiment: western blot, relative to WT
[35] = target: peptide 4 variant V374A expressed by HEK293T cells (human); experiment: western blot, relative to WT
[36] = target: peptide 4 variant G373A expressed by HEK293T cells (human); experiment: western blot, relative to WT

B1: STC43H11-1 (antibody, V domains shown)
VH: QSLEESGGRLVTPGGSLTLTCTVSGIDLSSYAMGWVRQAPGEGLEWIGSIGTGGGTGYASWAKGRFTISKTSTTVDLKMTSLTASDTATYFCATSNLWGPGTLVTVSS
VL: QVLTQTASPVSAAVGGTVTINCQASQSVYNNNRCSWFQQKPGQPPKRLIYHTSTLDSGVPSRFKGSGSGTQFTLTISDVQCDDAATYYCLGNYDCSRADCAAFGGGTEVVVK
notes: From immunized New Zealand rabbits; IgG heavy chain and Kappa light chain; also called clone #43H11; Clone 43H11
[1]
  STC43H11-1 Adj. Vol. (Int): 4.8e+06
[2]
  STC43H11-1 Adj. Vol. (Int): 7.03e+06
[3]
  STC43H11-1 Adj. Vol. (Int): 2.61e+06
[4]
  STC43H11-1 Adj. Vol. (Int): 1.35e+06
Denatured hBTN1A1 ICD
  ELISA signal: 2.87
hBTN1A1 ICD
  ELISA signal: 2.93
BTN1A1 Peptide 4
  ELISA signal: 2.88
[5]
  binding result: no binding (tested: 500 nM)
[6]
  binding result: no binding (tested: 500 nM)
[7]
  Normalized Fold: 0.239
[8]
  Normalized Fold: 0.414
[9]
  Normalized Fold: 0.000608
[10]
  Normalized Fold: 1.32
[11]
  Normalized Fold: 0.0496
[12]
  Normalized Fold: 0.0394
[13]
  Normalized Fold: 0.000853
[14]
  Normalized Fold: 0.045
[15]
  Normalized Fold: 1.18
[16]
  Normalized Fold: 0.323
[17]
  Normalized Fold: 0.478
[18]
  Normalized Fold: 0.231
[19]
  Normalized Fold: -0.00102
[20]
  Normalized Fold: -0.0409
[21]
  Normalized Fold: 0.128
[22]
  Normalized Fold: 0.237
[23]
  Normalized Fold: 0.0107
[24]
  % binding Rel. Quant.: 86.8%
[25]
  % binding Rel. Quant.: 0.127%
[26]
  % binding Rel. Quant.: 10.4%
[27]
  % binding Rel. Quant.: 8.25%
[28]
  % binding Rel. Quant.: 0.178%
[29]
  % binding Rel. Quant.: 9.41%
[30]
  % binding Rel. Quant.: 67.6%
[31]
  % binding Rel. Quant.: 48.3%
[32]
  % binding Rel. Quant.: -0.213%
[33]
  % binding Rel. Quant.: -8.55%
[34]
  % binding Rel. Quant.: 26.8%
[35]
  % binding Rel. Quant.: 49.6%
[36]
  % binding Rel. Quant.: 2.25%
